Results published in paper PMC9638937, “Structural and functional determinants of the archaeal 8-oxoguanine-DNA glycosylase AGOG for DNA damage recognition and processing”.
Substitutions are numbered along the chain they refer to.

T1: Pab-AGOG WT (Pyrococcus abyssi, UniProt Q9UZY0 1-239)
T1 sequence: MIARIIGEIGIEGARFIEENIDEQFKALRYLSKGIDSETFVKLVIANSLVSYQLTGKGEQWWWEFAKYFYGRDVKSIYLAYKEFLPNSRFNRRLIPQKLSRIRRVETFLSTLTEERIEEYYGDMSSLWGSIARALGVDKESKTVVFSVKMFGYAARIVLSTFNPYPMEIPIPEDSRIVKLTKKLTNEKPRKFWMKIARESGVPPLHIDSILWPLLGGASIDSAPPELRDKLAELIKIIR

T2: Pab-AGOG K142Q (Pyrococcus abyssi, UniProt Q9UZY0 1-239, K142Q)
T2 sequence: T1 sequence with K142Q

B1: 9-mer trapped AP strand with 9-mer A (dsDNA)
DNA 1: TTTGTTTCT
DNA 2: AGAAAAAAA
modifications: ring-open AP site from GO, borohydride-trapped, opposite A
B2: 9-mer GO:C duplex (dsDNA)
DNA 1: TTTGTTTCT
DNA 2: AGAAACAAA
modifications: 8-oxoguanine at position 4 (opposite C6*)
B3: 9-mer trapped AP strand with 9-mer T (dsDNA)
DNA 1: TTTGTTTCT
DNA 2: AGAAATAAA
modifications: ring-open AP site from GO, borohydride-trapped, opposite T

Assays:
Pab-AGOG WT = target: T1, Pab-AGOG WT; assay: X-ray structure; NaBH4-trapped covalent at K142; EMSA: 0.1 nM 32P-DNA, 20 mM HEPES/NaOH pH 7.6, 100 mM NaCl, 10% glycerol, 0.1% BSA, 30 min at 4 C; 10% native PAGE at 4 C; settings: protein: recombinant; tags: N-terminal 6xHis (pET28a), removed by trypsin at thrombin site
Pab-AGOG K142Q = target: T2, Pab-AGOG K142Q; assay: X-ray structure; non-covalent, 1.25 A; EMSA: 0.1 nM 32P-DNA, 20 mM HEPES/NaOH pH 7.6, 100 mM NaCl, 10% glycerol, 0.1% BSA, 30 min at 4 C; 10% native PAGE at 4 C; settings: protein: recombinant; tags: N-terminal 6xHis (pET28a), removed by trypsin (as for WT)

| Binder | binding result (Pab-AGOG WT) | binding result (Pab-AGOG K142Q) |
| --- | --- | --- |
| B1 | binds | – |
| B2 | – | binds |
| B3 | binds | – |
